The text below walks through data of the supplement of paper PMC12042874.

± gives the uncertainty stated by the source.

This series can be described thus: amyloid nucleation score (Sup35N fusion, yeast selection) (log enrichment); library NNK1; higher = more nucleation; inactive = no reads after selection. The essentials: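 Sup35N was fused to peptides of 20 random codons and expressed in psi-negative yeast, which were induced with 100 μM copper sulfate for 24 hours and then grown on medium lacking adenine and uracil for 7 days at 30°C. Plasmid inserts from input and output were sequenced on Illumina. The nucleation score is the DiMSum log enrichment of output over input reads, centred on the mode score of non-aggregating sequences. Sequences with under 100 input reads were left out, and random libraries had three technical output replicates.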
In turn, MRGMADYC displayed an amyloid nucleation score of -0.251 ± 0.88. With KWVKEALIA, the amyloid nucleation score is -0.463 ± 0.73. Under SVSEWRQVILIIGVIVK stands -0.278 ± 0.51. In the case of LNSVVTVKWVLKARSLVVRC it was 1.16 ± 0.88. In the case of VHAHVSREIFTGQ it was 0.659 ± 1; in that of SGHNSLGFISGIAINIFYRE, 7.537 ± 0.069. QYRHRGRQHLMGGNAQCPYV: the amyloid nucleation score came out at 0.477 ± 0.66. IRMVFAMVSYSCDYRATAGT had an amyloid nucleation score of 2.65 ± 0.18.

Take GAFEDEVVLLTHTL: the amyloid nucleation score was -0.447 ± 1.1. Under YLSCLNFRLGSMFMRSL stands 0.653 ± 0.93; under ISNWDVLSCMTQDIGVMTLL, -0.092 ± 0.82; under LGSWRFMLAVI, 0.375 ± 0.48. Substance GVTLYRRGIFGMSL gave an amyloid nucleation score of 0.338 ± 0.66. In the case of SFLLYGLFAYVSAYIRDICA it was -0.166 ± 0.38; in that of RVVPGGRLRYVNMVF, 1.26 ± 0.67; in that of AFPPYRIFADRLYMSSPGPA, 0.961 ± 0.69.

In turn, CTRVTSRAM returned an amyloid nucleation score of -0.757 ± 0.9. Under LDFIKWAYNWCRLIVGIGGC stands -0.476 ± 1.9; under DNIYIYIPVTYFCATLRMWR, 5.09 ± 0.071. In the case of TSFFFHEQHHFKGNKFNFEV it was 3.5 ± 0.18. For the substance LLRVAFLKRYFSTIFCVLLR, the amyloid nucleation score was -0.716 ± 0.53. Consider GGTYPPLDISDFNW, for which the amyloid nucleation score was -0.616 ± 0.27. As to SSWSGMFTCSYTMMLWLRRL, the amyloid nucleation score is -0.692 ± 0.75. On to LFREQW, for which the amyloid nucleation score was 0.228 ± 0.85. Under MLQFFVSWGILVKICVWTVG stands “inactive”; under CRLISCDRFRSTRSKG, 0.016 ± 0.52; under AGWYASW, 0.142 ± 0.74. In the case of GLQEVCWC it was -1.67 ± 2.4; in that of RICKGIAGKSENCNTLYNSS, “inactive”; in that of EKELIK, 1.1 ± 0.61. For the substance RIVRRFAGLISSI, the amyloid nucleation score entry was “inactive”. Regarding YMGYCYNTTKVCKLRQIYAG, the amyloid nucleation score is 1.71 ± 0.54. Regarding LFTCVQFIMGVDDRWKRARS, the amyloid nucleation score turned out to be 2.19 ± 0.26.

VKQSST returned an amyloid nucleation score of 0.212 ± 0.66. For LWWLHGDLLLSWGFRMLWPL, the amyloid nucleation score stood at 0.117 ± 0.78. Under FGSRVVGRCVETSHSILFVL stands 0.58 ± 1.1; under ITFTHDNISYKIRTPFAKSL, 1.55 ± 0.26; under EIKISSDGTVSMARGRWCQG, 6.615 ± 0.05. Under TTVKYLWLYLGFVLGQGVNG stands -0.303 ± 0.25. The substance CLYVAESSTTMNLWDHSVLP showed an amyloid nucleation score of -0.575 ± 0.41. Under NNSLKCCLFLMSNLKSSRVN stands 6.08 ± 0.066. Under ITFLLRSFRVHS stands “inactive”; under TLVFYRVQGFGIPKSQLTGE, -0.675 ± 1.1. On to RYNTPNGVYICLNA, for which the amyloid nucleation score was -1.03 ± 0.39. Under PGFYGPLIGFMWRCSARERC stands 0.673 ± 0.37; under VCCGPSSEEP, 0.384 ± 0.85; under LSVNWFGCTWQNHKEGIGRN, 1.79 ± 0.12. YSTYQ came in with an amyloid nucleation score of 0.369 ± 0.29. Under VKLAVREVTSEMPREKLTVA stands 0.236 ± 0.26; under DAEWF, 0.393 ± 0.27.

On to VLVKQGVMA, for which the amyloid nucleation score was 0.868 ± 0.78.

The substance NNLMFNYSGHMVSVKAHSSG displayed an amyloid nucleation score of 0.776 ± 0.43. Under CHSINLGLNPFKYVNLPNGH stands 2.38 ± 0.15.

For VLIMYYGCLDDFLLRDYSLL, the amyloid nucleation score amounted to 0.856 ± 0.67. Under TLVLSLAHPCASGNKPDKSG stands 0.863 ± 0.32. In the case of VETSGVILVESWCFMLGIDV it was 0.724 ± 0.75; in that of HRQLWC, -1.96 ± 2.1; in that of YSWILKKWVFVYSLFTSGHM, 0.278 ± 0.55. In turn, TQPLEIK registered an amyloid nucleation score of -0.165 ± 1.5. Under YALRVSR stands -0.346 ± 0.43; under LLYSERTIIPVDRYT, -0.686 ± 0.48. In the case of RSLLHCYHNKWMSVRTAFSP it was 0.642 ± 0.66; in that of HSTLFGSKFWGKTQHNFDS, -0.151 ± 1.1; in that of NSFVYQWFGYVSFKLFRCTV, 0.316 ± 0.26. In the case of EKILLG it was -1.8 ± 2.4; in that of VNKHL, -0.329 ± 0.36.

The substance FLTLCVLNRLWH registered an amyloid nucleation score of 4.85 ± 0.11.

PFRGDGIGYISVGGWFVQDN gave an amyloid nucleation score of -1.51 ± 2.4.

Substance NCVVYDIEYICWNIGGKI displayed an amyloid nucleation score of 5.71 ± 0.077. Under FHCGMGIF stands -0.197 ± 0.32; under ATGTSWYVPGRVGLCGYWLI, -0.153 ± 0.23. LWPDTDPIGGE came in with an amyloid nucleation score of -0.74 ± 1.1. In the case of FCFMWGYMVRVIV, the amyloid nucleation score entry was “inactive”.

The substance LGMIADYQKQKMMSSGTSLR yielded an amyloid nucleation score of 0.289 ± 0.69. Under IIVGVVNTRDYLYCRNFVYI stands 2.79 ± 0.1. Consider RMGVA, for which the amyloid nucleation score is 0.644 ± 0.92. In the case of HFHNSCLYIGRVHIGHTLGV it was 7.826 ± 0.052. In the case of SDVSYLVNSSNVGLWHL it was 0.467 ± 0.4; in that of LNISMFHSNSSHTTEEVTHH, 1.32 ± 0.19. MFVGGRTNTQMYHMDVVPFQ displayed an amyloid nucleation score of 1.13 ± 0.63. In the case of QGMQICHQKHGAWSGYNGRE it was -0.379 ± 0.29.

As for CDERNNAFLGVFGSS, the amyloid nucleation score was -0.288 ± 0.47. In the case of DDKIVRIEDSMAASNIAFLA it was 0.371 ± 0.32; in that of SLIRLCVAVTSTSNPGWPLL, 3.09 ± 0.12; in that of VNKRISGTLHDTYEGDLCL, -0.418 ± 0.75. In the case of SFYLIPPSCGYISHFGISTG it was “inactive”; in that of LWLTPTQCMTHNFPLLTPRR, -0.354 ± 0.47; in that of TKQFEPFCLRLSVVMLLLQE, 0.034 ± 0.45. Under TMCCTLDARRLLLSMADFYC stands 5.42 ± 0.072; under LCSIN, -0.876 ± 0.99; under LCCFKSFVSENMN, 6.447 ± 0.05. Turning to NFLMKWCEINTCLLVSFSYW, the amyloid nucleation score was 4.5 ± 0.071. In the case of FNLRTIARDL it was -1.68 ± 0.97; in that of EGSVGHRMVSWVFISYTLVL, 0.006 ± 1.1; in that of MECSASYLYVWKIANTLGRM, 0.637 ± 0.31. The substance KEDIVLACIGSVKHVRAQWR showed an amyloid nucleation score of 5.97 ± 0.081. Under ARVNVWAVGWSENNSNLKI stands 0.916 ± 0.24; under CGKTMGINAGMCSTNWGGPT, 0.263 ± 0.33; under YLLSCVGIASLGFKVFL, -0.718 ± 0.7.

In turn, TNVYESSVSFVMMGS gave an amyloid nucleation score of 0.364 ± 0.26. In the case of KGGSFVGLSTVQYLLASYAL it was -0.153 ± 1.3; in that of HHVIRVDIMMFVVKSSELYN, “inactive”; in that of NWELRRVTRKWRSGDTSLSD, -2.04 ± 2.4. In the case of QNKVCNCDRVFTRFIESNSL it was -0.254 ± 0.38; in that of STDLSYVSCAYVSTFLPNFR, 2.2 ± 0.21. Consider MQVVVYKYLTMYQR, for which the amyloid nucleation score amounted to 1.29 ± 0.76.

In turn, LHIAMTVYC displayed an amyloid nucleation score of 2.42 ± 0.13. In the case of PRVIELARLVRLRKTKVYML it was -0.013 ± 0.24; in that of GWVLCRGSLFIWWFWTSLRL, -0.106 ± 1.2; in that of HLSYI, -0.455 ± 1.7. Under SYILCHWTFGDKGRFPQNYR stands 2.3 ± 0.18; under KYCVN, -0.403 ± 0.38; under NVWNVFWLNN, “inactive”. Under VGCSRIDDPRSGAEALRSYC stands 1.08 ± 0.78; under ADDGCSRNVCQTLYMSFLVN, -0.072 ± 0.35; under RRSSILVNTGYPDLGYVMGD, -1.18 ± 1.3. On to VARHGEGFNW, for which the amyloid nucleation score was 0.446 ± 0.64. In turn, LVAYVTRRFVLCM gave an amyloid nucleation score of -1.42 ± 1.8. Under FMRDCSYI stands 0.687 ± 0.79; under LLVNFSTSRLSLYMFIMIFS, -0.779 ± 0.39; under YKWIDRMVDERQLMSSKRQW, 0.099 ± 0.66. In the case of LNFFVPA, the amyloid nucleation score is -1.38 ± 2.4.

Regarding SHVGSYSWVCSRLARIGCER, the amyloid nucleation score was -0.703 ± 0.46. NAVITESLIDKAPVGSNWDT had an amyloid nucleation score of -0.498 ± 0.59. Under WVSMKVVGVKHSGLDWRIL stands 0.012 ± 0.52; under CIRVWCLILSRSWGFTPANC, 1.18 ± 0.9; under LIKKKSNSIYMI, -0.062 ± 0.3. In the case of YESRCGWASRNFSLSENQNS, the amyloid nucleation score result was “inactive”. As for DMNLRVDLYMKFEWSGLVER, the amyloid nucleation score came to 0.109 ± 0.36. Under IRKFLFLFNALLSAPLLFHK stands -0.2 ± 1.1; under ISHKQITTDSSNTVRVYGGN, -0.122 ± 1.6.

Substance CKKSCGSVRSNASLTKDWSN yielded an amyloid nucleation score of -0.097 ± 0.28. Consider SSGVFTSI, for which the amyloid nucleation score was -0.042 ± 0.66. In the case of NMIVKSATEAANSP it was 1.25 ± 0.56. In the case of LGPYQTCR it was 1.58 ± 0.72; in that of NIGIMNFIVLAFLQ, 6.529 ± 0.062. On to ETACLYLLFMSKACMRMMNS, for which the amyloid nucleation score is -0.219 ± 1.1.

LSGLRNVLPLLTMYASIMKV came in with an amyloid nucleation score of 0.688 ± 0.7. Turning to EVRSQSNEYHLRNWCVYK, the amyloid nucleation score was 1.31 ± 0.23. SGQTYGNFFGEAFWYECA registered an amyloid nucleation score of 0.19 ± 1.4. In the case of FHCTNSMVMLGRHATMLFFY it was 5.92 ± 0.095.
